The target of the assay is T1, human EpCAM full-length protein (on MCF-7 and A431 cells) (human, UniProt P16422 24-314).
T1 construct: Endogenous EpCAM on the cell lines MCF-7 and A431 (ATCC); also called CD326; epithelial cell adhesion molecule
T1 sequence: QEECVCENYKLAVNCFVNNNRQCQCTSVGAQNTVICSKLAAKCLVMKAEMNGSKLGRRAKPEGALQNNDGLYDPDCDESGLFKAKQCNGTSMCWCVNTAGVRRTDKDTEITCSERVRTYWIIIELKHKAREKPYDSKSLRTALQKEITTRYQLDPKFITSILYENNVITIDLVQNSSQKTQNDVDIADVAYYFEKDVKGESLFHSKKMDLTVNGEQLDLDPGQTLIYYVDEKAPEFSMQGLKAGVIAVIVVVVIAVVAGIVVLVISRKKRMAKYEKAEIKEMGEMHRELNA
Nature of the assay: flow cytometry (FACS) on MCF-7 and A431 cells, Alexa Fluor 488 goat anti-human IgG detection. In general terms: A flow cytometer gives signals particle by particle.

Results on two molecules are retold here after patent WO2020216210A1 (dated 2020).

B1: fully human antibody h1905 (antibody, human IgG1, kappa, V domains shown)
VH: QMQLVQSGAEVKKPGASVKVSCKASGYTFTSYDINWVRQATGQGLEWMGWMNPNSGNTGYAQKFQGRVTMTRNTSISTAYMELSSLRSEDTAVYYCARGVVVVVAATRGHYYYYYGMDVWGQGTTVTVSS
VL: DIQMTQSPSSLSASIGDRVSMTCRASQSVTKYLNWYQQTPGKPPKLLIFSASHLQTGVPSRFSGSGSGTDFTLTIDSLQPEDVATYYCQQSYSTPFTFGQGTKVEIKR
notes: Complete antibody VH-CH1-FC/VL-CL built from a phage scFv
With B1, the binding result was “binds”.

B2: fully human antibody h1907 (antibody, human IgG1, kappa, V domains shown)
VH: QVTLKESGPTLVKPTQTLTLTCTFSGFSLSTSGVAVGWIRQPPGKALEWLALIYWDADTRYSPSLKSRLTITKDTSKNQVVLTMTNMDPVDTATYYCAHRPHGSGSYYAFDYWGQGILVTVSS
VL: DIVMTQSPSSLSASVGDRVTISCRASQNIRNYLNWYQHRPGEAPKLLISGVSRLQNGVPSRFSGSGSGTDFTLTIRSLQSEDFATYYCQQSYINWTFGQGTKVEIKR
notes: as for B1
Consider B2, for which the binding result is recorded as “binds”.
